# In the DeepSol protein solubility set:
# Experiment: soluble on expression in E. coli; label from the status in PepcDB or PDB records
row,Sequence,soluble on expression in E. coli
1,GPGSMWRITRLCCKQLIRDESLVSLPPAVHRLEVYRNAVSVDCEERICAELGLLLQREGHTAFAEGSTPQQKIVKHTYLELHGAHKDFTEVKSFQRKETRRLPGLLWSPTLVSWMNEVVPRVRVFPVGVMPDTARVVEHNMTGYEMHMEHPTVGCSFLYLSLLSDTVLTFDDEATGRYGEVFLPQRALMCCSGEIRWGWRFGEQSREVHTFVNASGVRRVVEPDLRLSVQLWKFTPQLLDARLLQDRVEESMKQREAEESNEVVETIAVDRKKNEEEHKGSASSHALFSALAEKGASGTGPLGGEYVEGRTQACKGVEGKSMTMEDIGRDYNTYKQQFQNVHGVLQEMKALQDAGQPINDMWLRKRILDGQKDDNHDAQDGFDPNDVEGTWDRVDAKARFYKARLKGMDYDGTANSNSSMPDVTEDAPLDMKKTIQKIAPLVKDGDKILASLPCGQ,not soluble
2,MPTPARKTQKGGRKRRVNGVEEEILYIIGFFQDDSSIGLSTFFTKFCILYQDSKSNFRVLNLEMFSPENLNARKKMSQEKDTPSH,not soluble
3,EGRATHLQGLVVDITERKEAQKMLEIQRELGAKLNTTWNLHAILNMVLDACLQINGIDAGGVYIRDELLDQINLVQSRGISPEFKEKVSRFKADSNEAKQVWAEKPIYSMDFYSDKMAEAARKEGIKAVAVIPLKYSNEIIGSLNFASH,not soluble
4,MIADWLEQNGYPISSQVLKTEMSGNYMESAEKHVENGEKIDNLLRSQLKIDIRDGTGDDFERKSIKSIGAGRPFAKINMVDKQRAPLKITPLSDEEFRKTMRKRMEMERERLARLSNQAEDDSDDSSSSSDSSTSSASSSSEEKLTFSDILGKPTAAGAEKMIELSQIPNAWGPSKSALVTDDVASTSDPLPAIFNAHLPPLSMGRPPLTKSAKSREIDAIFGSDNVDYDLEDFEQDGVAKKKSILPMEKKKEEAKPKEQELVEPLVLSEGESIDELEDFDTGLLSSGGSDYSF,not soluble
5,MAHHHHHHMGSTDGECASSLRGHRMPSWILSHLETESKCLNDTPLVEEEKAPPSVPVTVLKKRFPQGLKILKKAPPKEKIVMPVEEECADSCRSSRPSVSVQSAVPGNGHRIARHTIRFRMSDWANLIEEKKDLVAQAVKEDISEGCGLDIGRILQLELKLTDILVVTFIVDHSHDDGGERPFHARLKVCKFPRTSSLYLLR,soluble
6,ASIPSSASVQLDSYNYDGSTFSGKIYVKNIAYSKKVTVVYADGSDNWNNNGNIIAASFSGPISGSNYEYWTFSASVKGIKEFYIKYEVSGKTYYDNNNSANYQVST,soluble
7,FAKQKKESVISAISTVNPQELKVPSSNLTTALAGRMSGLIAFQTTGEPGKDNAQFFVRGATTFGYKKDPLILIDNIELSTDDLARLNVDDIAQFSIMKDATATALYGARGANGVILVTTKQGVAG,not soluble
8,MAKQPTVLWAQRESLVYLTIEVDEAKIEELKGEGNKLHFQGSSKTDKYEATLEFFDEIDPASVKHTGSSTRVVEITVQKKTPAWWPRLLQNKGKVHWLKVDFGKWKDEDEDDEAEDAGAGIGGGMANGFDLNQYMSQMGGAGGADFGGLEDDEEDDDMPDLEDNEEEEGKNGTRA,not soluble
9,MMLAMIKDPFARLGLDREVLTVSQLNGRARVLLEDVFSSIWVEGEISNLSRPASGHVYFTLKDSGAQVRCALFRQSAARVRQALKDGLQVKVRGKVSLFEGRGDYQLILDTVEPAGDGALRLAFDALKAKLSDEGLFSADRKVALPLHPQRIGIISSPTGAVIRDIISVFRRRAPRVELTLIPTAVQGREAINQIVRALKLADARGFDALILARGGGSLEDLWCFNEEAVARAIDACVTPIVSAVGHETDVSISDFVADVRAPTPSAAAELLAPDSSDLHRRVDNLHRRLVSRMQDRLMRERLRLEGISRRLRHPGERLRQQSQRLDDLDMRLRRAFEQSMHKKQVRLAHMESRLTAQHPGRTLAFLRQRLDALAERLPRAIREQIKVRKLQLQSQMQTLNVVSPLATLGRGYSILLDERGHAIRNAAQTQPGQRLTARLGEGELQVRVEDNHLTPVTLSLLD,not soluble
10,MSLEYARRQALAREGLSAAGLDALIVTGPENIFYLCGQQTPGYYTFQALILPADGDPVFLIRQLEYFNFIANTFISDAVVYQDGEDPLALLVKLIESRGLASRRIAIDKRGWFLPIAVYEALQARLGTIGDGAGVIERFRAIKSPLEVEKLEKAAAYVDEGMRAGLAAVRVGATENDLVSAMLGSAIAAGSEYLGMEPLVSVGPRTGVPHGTWRRRAITDGDPAFLEMAACHDRYHAALMRSAWIGEPPREAVDMMKACQEALQVSLDTIRPGVACEVPHIACQKVIDRAGYTDNFKKRLGYSVGISFAPDWGEGAILSLNTGVKTELQPGMTFHLPPALRIYGRFTVGVSETIVVTETGYRALGSIDRNLLIVEGHHHHHH,soluble
11,MGSDKIHHHHHHMSKILSIIIPTYNAEKFLNKGLSSFLVCRDTDAQTAQHNCKMATEGRFEEIDIDKAILDKLEVIVVNDGTPDKSVEVAQKFVDWYPDTFVIVNKTNGGHGSAINTGVEHVRGKYLKVVDADDWVDTLALKKLITTLQVLEAAQEKQDTRVMDAMLMSYTTYDLQKAAKGDIPYEEHLVVPGTKHDKSVDIQNLGGPYSSQVIAKHFDDVYWGLTFHGILYNTAFYRGLAHKLAEGIFYEDQEYAAVPMAYADTIYVYDEQLYQYRIGDVSQSISMESSLKRLSHYETVIRTLIAEGGNSEEFAPGGKQIWGIKTAKFIDDYYQLCLIKNPDKKMLRDRMEKFTSEIKSADGYIYGLIEKNYKVFRMLNKLHMNEKVYQKVFIPMVHLIRK,not soluble
12,MRISAKGRYALAAVISMAQQYNNGEYITVISISEKLGISKIFLEQVFSSLKKAKIVSSTKGVQGGYQLTRTPSQITVLDVLLSVEVSLFEQTQETVSDKAPDIEQALRSSVFDVLDKNIKQTLSTITIADLVAEAEKHKDYNALMFYI,soluble
13,MSLTRIKLIATDVDGTFLNQQRTYNHNRFAAQLNRLSSASIRFVVASGNHLGHLKDVFAPTPQVQTFVAENGGLIVDHNRTLAEAQLPLPVVREVVQAILADQTLRPQLLRLSGAHGTYLNRQDRSLDEASQDYFFNNLVRVDDLTQVNDTIYKINGEWPNDSIQTIAAKLNAHFPGLINATASGFGSIDIVAPHMNKAVGLTQLAATWHITPAEIAAFGDNDNDREMLAHVGLGVAMRNGTDSVKEVADLITPHDNNHEGVLDVIDTILADEGHHHHHH,soluble
14,MLQPPHQSLQVAAVPAQRAPVRDRDQDAPWHTEAVCRRDEAGLFFAPSKEPTAARLSREEAAKRVCARCPVMVECREHALLQPEPYGVWGGLTAAERRVVLARRRRRDVELKKAARGTIAAAG,not soluble
15,MKKVYFNHDGGVDDLVSLFLLLQMDNVELTGVSVIPADCYLEPAMSASRKIIDRFGKNTIEVAASNSRGKNPFPKDWRMHAFYVDALPILNESGKVVTHVAAKPAHHHLIETLLQTEEKTTLLFTGPLTDLARALYEAPIIENKIKRLVWMGGTFRTAGNVHEPEHDGTAEWNSFWDPEAVARVWEANIEIDLITLESTNQVPLTIDIREQWAKERKYIGIDFLGQCYAIVPPLVHFAKNSTYYLWDVLTAAFVGKADLAKVQTINSIVHTYGPSQGRTVETDDGRPVHVVYDVNHDRFFDYITRLAKKVST,soluble
16,MSLSKVYLVPTPIGNLGDITLRALEVLKNVDLIAAEDTRQTLKLLNHFEIKKPLISYHKHNEQGKGEEILRRVKEGTSVAIVSDAGTPGISDPGSVVVEKCIEEGIEFEVLPGATAFTTALIYSGLDTTKFMFKGFFPRENKDKRSFIEDIKDRTETIIIYESPYRILDTIDTLKEGLGNRKVAICRELTKLHEEIFRGTLEEAKIHFEENAPKGEFVCVISGKTDKEIEEENTSKWISMSIEEHIIHYIDNEGMKKKDAIKQVAKDRGVAKSEIYKFSLDEGHHHHHH,soluble
17,MGSDKIHHHHHHMNAHTIPELRYAMSREAIIGHETAWKVSSFGVAQYLHGYDPALLAAIEEAALKLKDSHAVHKHLDLTFITGADRFIPEIKELLHDKLRLERLSDMMGTKLEPYPLSIVGSTVTFMNPRDGAVEWHCDGVPVTELIPLSISNPLVGGHLEIYCDDSETGRAILESGREIPRNRIMRIDHKMNYATLGQFLGVLHRTAPIQYGERVTLVLNQRSVAKPYVDDNRMFYLAADNDHDREWVNELAEDVWTNQLPAYRRFEAEHPTPAPASETQVSGGARGSW,not soluble
18,MAHHHHHHMTDTTKGALKRSNTLFLSDAEQFVFDFGGSAGGRAVSPGSSHGSGGQPGEGDGEKGIEETDLANGRTGVVTPFSERERTAPVAPLDAEEVQRYFDKALKGGRRILLENVPLDEAIEKFQLGLRRYEEWLCNQANSRNRGDSSKSRGDPLNEGYRGKPGDVARDAKDRKRPRL,not soluble
19,MGSDKIHHHHHHMPNTIHQDEGRPIVNSNDHDSPAESRASGVLNLTHLRTLVAVVQEGHLTRAAERLRISQPAASHHLRSLEQQFGLPLFTRTPQGVVPTAAGLQLSEQAARLLASSLELLSTASELRGSASGRIAIGTIEDPSVHAALPSLIKWFHEHYPLIELSIESRNSSSIRQGILTGEINAGFYVSCTNEANLREYEIGQRELVVVAPQSWRERVATATWPELAKLPWVMTTTGSAHSEITAQLFRSHNITIRPALEVNTERLLRAMVSQGVGLGFTRREFAEAEQARGAFFIVPISVHRTTMHFAYARSAETDPLIQILSRGLATVLPVAERLIPSTAKPAEK,not soluble
20,MGHHHHHHSHATWHSALRGDAGLDSCRHVDSKCSGLHSSYRNLGTRQCPFSFLAEVMGKEPHFHSCLQVSHEFALNFNPSNPYCAGIQGIVDAYRQALPQVRLYGPTNFAPIINHVARFAQYFMLLLLTDGAVTDVEATREAVVRASNLPMSVIIVGVGGADFEAMEQLDADGGPLHTRSGQAAARDIVQFVPYRRFQNAPREALAQTVLAEVPTQLVSYFRAQGWAPLKPLPPSAKDPAQAPQA,not soluble
21,MHPALKYMRQDRLPHIFCSGCGNGIVMNCFLKAIEELNIKPEDYIAVSGIGCSSRVPGYLYCDSLHTTHGRPIAFATGIKIARPDKHVVVFTGDGDLAAIGGNHFIHGCRRNIDLTVICINNNIYGMTGGQVSPTTPYGKKATTAPYGSIENTMDLCKMAIAAGATYVARWTTAHPIQLVRSIKKGIQKKGFAFIEVVSQCPTYYGRFNISRKPADMIKFLKENSIHLNKAKDMSEEELNGKIVVGEFLDIEKPEFVEELHKLIEKLKSE,not soluble
22,AESSADKFKRQHMDTEGPSKSSPTYCNQMMKRQGMTKGSCKPVNTFVHEPLEDVQAICSQGQVTCKNGRNNCHKSSSTLRITDCRLKGSSKYPNCDYTTTDSQKHIIIACDGNPYVPVHFDASV,soluble
23,MSSVKRSLKQEIVTQFHCSAAEGDIAKLTGILSHSPSLLNETSENGWTALMYAARNGHPEIVQFLLEKGCDRSIVNKSRQTALDIAVFWGYKHIANLLATAKGGKKPWFLTNEVEECENYFSKTLLDRKSEKRNNSDWLLAKESHPATVFILFSDLNPLVTLGGNKESFQQPEVRLCQLNYTDIKDYLAQPEKITLIFLGVELEIKDKLLNYAGEVPREEEDGLVAWFALGIDPIAAEEFKQRHENCYFLHPPMPALLQLKEKEAGVVAQARSVLAWHSRYKFCPTCGNATKIEEGGYKRLCLKEDCPSLNGVHNTSYPRVDPVVIMQVIHPDGTKCLLGRQKRFPPGMFTCLAGFIEPGETIEDAVRREVEEESGVKVGHVQYVACQPWPMPSSLMIGCLALAVSTEIKVDKNEIEDARWFTREQVLDVLTKGKQQAFFVPPSRAIAHQLIKHWIRINPNL,soluble
